The numbers were not newly measured in article PMC3727077, which cites them from elsewhere.

Some targets named below: α2M (Homo sapiens) (UniProt P01023); VEGFR1 (Homo sapiens) (UniProt P17948); α2MFAST (Homo sapiens) (UniProt P01023); VEGFR2 (Homo sapiens) (UniProt P35968).
For series [1], the target named is NRP1 (Homo sapiens) (UniProt O14786).
The target is the same in series [2]. This is another data set of the same source.

pKd: −log10 of the molar value. Like-named read-outs stand apart in the source and are kept apart here.

Sequence of UniProt P35968 (P35968 20-1356): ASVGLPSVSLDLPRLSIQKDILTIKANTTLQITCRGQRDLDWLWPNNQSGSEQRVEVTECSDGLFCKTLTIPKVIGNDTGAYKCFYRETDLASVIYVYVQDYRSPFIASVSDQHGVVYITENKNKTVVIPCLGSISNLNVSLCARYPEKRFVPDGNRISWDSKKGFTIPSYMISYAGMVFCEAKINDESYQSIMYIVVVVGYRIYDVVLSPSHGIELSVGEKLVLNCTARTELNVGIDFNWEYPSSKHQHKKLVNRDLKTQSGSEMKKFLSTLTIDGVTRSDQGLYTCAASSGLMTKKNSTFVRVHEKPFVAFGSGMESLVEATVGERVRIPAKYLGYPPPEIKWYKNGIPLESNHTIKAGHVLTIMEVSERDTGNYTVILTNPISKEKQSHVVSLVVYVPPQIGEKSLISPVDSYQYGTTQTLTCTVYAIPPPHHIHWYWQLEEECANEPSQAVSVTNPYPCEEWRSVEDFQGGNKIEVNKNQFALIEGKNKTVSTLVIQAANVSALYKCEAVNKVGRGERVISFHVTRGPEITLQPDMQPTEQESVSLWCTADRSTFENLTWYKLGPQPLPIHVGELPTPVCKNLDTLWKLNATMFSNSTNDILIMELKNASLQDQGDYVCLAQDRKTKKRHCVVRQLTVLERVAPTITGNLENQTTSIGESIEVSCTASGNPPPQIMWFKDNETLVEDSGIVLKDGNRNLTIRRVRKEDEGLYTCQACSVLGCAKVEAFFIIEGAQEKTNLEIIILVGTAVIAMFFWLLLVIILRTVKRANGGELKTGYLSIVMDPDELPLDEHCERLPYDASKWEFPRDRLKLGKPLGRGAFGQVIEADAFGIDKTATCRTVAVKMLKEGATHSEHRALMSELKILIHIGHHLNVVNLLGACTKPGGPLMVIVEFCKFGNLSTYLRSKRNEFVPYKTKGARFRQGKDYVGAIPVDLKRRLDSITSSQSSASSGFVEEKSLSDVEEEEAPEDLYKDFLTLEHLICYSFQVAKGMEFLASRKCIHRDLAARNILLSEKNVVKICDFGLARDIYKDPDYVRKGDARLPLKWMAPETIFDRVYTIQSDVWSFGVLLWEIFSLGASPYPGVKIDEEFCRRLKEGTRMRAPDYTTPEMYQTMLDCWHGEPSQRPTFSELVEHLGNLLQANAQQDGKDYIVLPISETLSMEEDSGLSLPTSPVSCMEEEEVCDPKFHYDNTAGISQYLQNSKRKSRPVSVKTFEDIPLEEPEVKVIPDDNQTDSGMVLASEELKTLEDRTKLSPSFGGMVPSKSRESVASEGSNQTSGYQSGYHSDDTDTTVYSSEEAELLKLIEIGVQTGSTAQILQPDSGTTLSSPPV

Consider sVEGFR1 soluble (from UniProt P17948), for which the pKd – broadly, −log10 of the Kd, conventionally taken in molar units – in the series with NRP1 (Homo sapiens) [1] is 8.74.
In the case of VEGF (from UniProt P15692), the pKd with α2M (Homo sapiens) is 5.40; with VEGFR1 (Homo sapiens) it was 10.48; with NRP1 (Homo sapiens) [2] it was 9.51; in the series with α2MFAST (Homo sapiens), 6.38; with VEGFR2 (Homo sapiens), 10.00.
